Assay results reported in US20230136331A1 (ILDONG PHARMACEUTICAL, published 2023).

Target: T1, human TIGIT (human, UniProt Q495A1 22-141)
T1 construct: also called hTIGIT
T1 sequence (looked up): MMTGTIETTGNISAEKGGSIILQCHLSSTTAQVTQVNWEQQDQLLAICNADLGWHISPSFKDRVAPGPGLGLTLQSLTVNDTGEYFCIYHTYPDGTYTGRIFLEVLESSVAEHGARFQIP
Test: SPR, captured by anti-human Fc, hTIGIT analyte
Description: The sensorgrams for reference channel Fc1 and buffer channel were subtracted from the test sensorgrams.

B1: Tiragolumab (antibody, human IgG1, kappa, V domains shown)
VH: EVQLQQSGPGLVKPSQTLSLTCAISGDSVSSNSAAWNWIRQSPSRGLEWLGKTYYRFKWYSDYAVSVKGRITINPDTSKNQFSLQLNSVTPEDTAVFYCTRESTTYDLLAGPFDYWGQGTLVTVSS
VL: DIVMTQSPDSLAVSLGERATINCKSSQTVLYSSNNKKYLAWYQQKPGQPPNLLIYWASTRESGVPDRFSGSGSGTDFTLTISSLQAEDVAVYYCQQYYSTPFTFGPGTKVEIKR
notes: also called anti-TIGIT antibody; control antibody
- Kd: 0.0595 nM
